In patent US20180339041A1 (Kyowa Kirin, published 2018):

T1: C-terminally FLAG-tagged rat Gas6 recombinant protein (rGas6-F) (rat, UniProt Q63772 28-674, limits assumed, gamma-carboxylated glutamic acid residues in the Gla domain (producer cells co-express rat VKOR and human GGCX); positions not given)
T1 construct: also called rat Gas6-F
T1 sequence (looked up): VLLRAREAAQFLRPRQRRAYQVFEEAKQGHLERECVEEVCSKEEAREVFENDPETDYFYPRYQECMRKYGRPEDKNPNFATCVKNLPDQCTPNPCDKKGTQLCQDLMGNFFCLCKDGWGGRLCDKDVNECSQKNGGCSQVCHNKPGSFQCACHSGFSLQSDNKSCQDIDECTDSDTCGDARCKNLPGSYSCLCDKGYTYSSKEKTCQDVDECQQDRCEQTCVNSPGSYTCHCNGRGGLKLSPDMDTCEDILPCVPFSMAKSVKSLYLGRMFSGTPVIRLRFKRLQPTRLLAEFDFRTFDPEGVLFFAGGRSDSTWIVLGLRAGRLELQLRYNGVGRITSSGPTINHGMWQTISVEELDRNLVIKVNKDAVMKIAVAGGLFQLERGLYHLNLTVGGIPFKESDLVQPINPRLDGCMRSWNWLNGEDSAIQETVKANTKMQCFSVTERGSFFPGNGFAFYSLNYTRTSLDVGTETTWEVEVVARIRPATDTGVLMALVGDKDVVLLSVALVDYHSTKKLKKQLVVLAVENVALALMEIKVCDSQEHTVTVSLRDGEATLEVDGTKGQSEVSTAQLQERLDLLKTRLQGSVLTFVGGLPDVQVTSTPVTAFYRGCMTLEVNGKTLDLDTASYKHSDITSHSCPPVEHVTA

T2: C-terminally FLAG-tagged human Gas6 recombinant protein (hGas6-F) (human, UniProt Q14393 31-678, gamma-carboxylated glutamic acid residues in the Gla domain (producer cells co-express rat VKOR and human GGCX); positions not given)
T2 construct: also called human Gas6-F; human Gas6 protein
T2 sequence: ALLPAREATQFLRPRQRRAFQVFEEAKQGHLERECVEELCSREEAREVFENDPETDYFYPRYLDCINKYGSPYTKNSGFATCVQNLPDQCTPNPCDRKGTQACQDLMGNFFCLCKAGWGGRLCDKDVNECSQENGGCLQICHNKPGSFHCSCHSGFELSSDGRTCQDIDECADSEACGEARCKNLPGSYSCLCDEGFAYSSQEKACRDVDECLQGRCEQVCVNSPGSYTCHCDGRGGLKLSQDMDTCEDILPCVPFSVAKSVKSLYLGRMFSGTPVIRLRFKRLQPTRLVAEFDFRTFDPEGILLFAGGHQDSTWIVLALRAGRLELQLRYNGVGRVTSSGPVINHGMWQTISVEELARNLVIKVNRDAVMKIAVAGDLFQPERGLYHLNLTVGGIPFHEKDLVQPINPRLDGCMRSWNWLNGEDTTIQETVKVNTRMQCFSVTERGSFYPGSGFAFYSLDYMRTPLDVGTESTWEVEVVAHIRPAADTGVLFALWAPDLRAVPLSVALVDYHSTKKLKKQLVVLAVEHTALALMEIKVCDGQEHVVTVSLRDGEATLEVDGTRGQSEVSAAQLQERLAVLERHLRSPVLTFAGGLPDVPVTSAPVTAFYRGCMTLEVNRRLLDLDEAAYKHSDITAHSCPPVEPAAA

B1: anti-human Gas6 mouse monoclonal antibody KM5321 (KM5321-mKG1 antibody) (antibody, V domains shown)
VH: QIQLVQSGPELKKPGETVKISCRASGYTFTNYGMNWVKQAPGKGLKWMGWINTNTGEPTYTEEFKGRFAFSLETSATTAYLQINDLKNEDTATYFCARDEGWFVYWGQGTLITVSA
VL: ETTVTQSPASLSVATGEKVTIRCITSTDIDDDMNWYQQKPGEPPKLLISEGNTLRPGVPSRFSSSGYGTDFVFTIENTLSEDVADYYCLQTDSVPLTFGAGTKLELK
notes: Hybridoma-derived mouse IgG1, kappa; also called KM5321 antibody
B2: anti-human Gas6 mouse monoclonal antibody KM5320 (KM5320-mKG1 antibody) (antibody, V domains shown)
VH: QIQLVQSGPELKKPGETVKISCKASGYTFTNYGMNWVKQAPGKGLKWMGWINTETGEPTYSDDFKGRFAFSLETSATTAYLQINNLRNEDMATYFCAREDGYYGTLDYWGQGTSVTVSS
VL: SIVMTQTPKFLLVSAGDRVTITCKASQSVSNDVAWYQQKPGQSPKVLIYYASNRYTGVPDRFTGSGYGTDFTFTISTVQAEDLAVYFCQQDYSSPWTFGGGTKLEIK
notes: Hybridoma-derived mouse IgG1, kappa; also called KM5320 antibody

What was measured:
[1] = target: T1, C-terminally FLAG-tagged rat Gas6 …; assay: competition ELISA: rAxl-hFc coated; rGas6-F at 50 ng/mL final premixed with the antibody; bound Gas6-F detected with anti-FLAG M2-HRP; blocked partner rAxl-hFc (Examples 5(4) and 7) [B]
[2] = target: T2, C-terminally FLAG-tagged human Gas6 …; assay: ELISA, Gas6-F captured by anti-FLAG, biotinylated antibody
Description: After removal of the immobilization solution, 1% BSA-PBS (manufactured by Nacalai Tesque, Inc.) was added thereto at 300 μL/well, and the plate was left standing at room temperature for 1 hour for blocking and washed five times with Tween 20-PBS (manufactured by Wako Pure Chemical Industries Ltd.).
(§1) Each antibody solution was dispensed thereto at 50 μL/well, and the plate was left standing at room temperature for 1 hour. This plate was washed five times with Tween 20-PBS. Then, Streptavidin HRP Conjugate (manufactured by R&D Systems, Inc.) diluted 200-fold with 1% BSA-PBS was dispensed thereto at 50 μL/well, and the plate was left standing at room temperature for 1 hour. This plate was washed five times with Tween 20-PBS, and TMB (manufactured by Sigma-Aldrich Co. LLC) was added thereto at 50 μL/well and reacted. At an appropriate point in time, the reaction was terminated by the addition of 1 N hydrochloric acid (manufactured by Wako Pure Chemical Industries Ltd.) at 50 μL/well. The absorbance at a sample wavelength of 450 nm and a reference wavelength of 570 nm (450 nm-570 nm) was measured using a plate reader.

[3] = target: T1, C-terminally FLAG-tagged rat Gas6 …; assay: ELISA: rGas6-F (1 µg/mL) captured on coated anti-FLAG M2 antibody; biotinylated test antibody; streptavidin-HRP/TMB; absorbance 450-570 nm, N=2 (Example 6) [C]
Description: First, 2 μg/mL anti-FLAG antibody [Monoclonal ANTI-FLAG M2 antibody produced in mouse (manufactured by Sigma-Aldrich Co. LLC) diluted with PBS (manufactured by Nacalai Tesque, Inc.)] was dispensed at 50 μL/well to a 96-well plate for ELISA (manufactured by Nalge Nunc International), and the plate was left standing overnight at 4° C. for adsorption. After removal of the immobilization solution, 1% BSA-PBS (manufactured by Nacalai Tesque, Inc.) was added thereto at 300 μL/well, and the plate was left standing at room temperature for 1 hour for blocking and washed five times with Tween 20-PBS (manufactured by Wako Pure Chemical Industries Ltd.).
as §1, with “At an appropriate point in time, the reaction was terminated by the addition of 1 N hydrochloric acid (manufactured by Wako Pure Chemical Industries Ltd.) at 50 μL/well.” left out

| Binder | IC50 (read off the curve) [1] [µg/mL] | antibody concentration at which binding activity was detected [2] [µg/mL] | EC50 (read off the curve) [3] [µg/mL] |
| --- | --- | --- | --- |
| B1 | ~0.03 | 0.0003 | ~0.004 |
| B2 | ~0.05 | 0.0003 | ~0.005 |
